B1: GST-EB1 (other, mouse, UniProt Q61166 1-268, looked up)
chain: MAVNVYSTSVTSDNLSRHDMLAWINESLQLNLTKIEQLCSGAAYCQFMDMLFPGSIALKKVKFQAKLEHEYIQNFKILQAGFKRMGVDKIIPVDKLVKGKFQDNFEFVQWFKKFFDANYDGKEYDPVAARQGQETAVAPSLVAPALSKPKKPLGSSTAAPQRPIATQRTTAAPKAGPGMVRKNPGVGNGDDEAAELMQQVKVLKLTVEDLEKERDFYFGKLRNIELICQENEGENDPVLQRIVDILYATDEGFVIPDEGGPQEEQEEY
notes: not shown: glutathione S-transferase (GST) tag, N-terminal, vector pGEX-2T
B2: GST-APC-C1 (amino acids 2674-2843) (other, UniProt P25054 2674-2843, looked up)
chain: SPTGNTPPVIDSVSEKANPNIKDSKDNQAKQNVGNGSVPMRTVGLENRLNSFIQVDAPDQKGTEIKPGQNNPVPVSETNESSIVERTPFSSSSSSKHSSPSGTVAARVTPFNYNPSPRKSSADSTSARPSQIPTPVNNNTKKRDSKTDSTESSGTQSPKRHSGSYLVTSV
notes: range 2674-2843; Gift from R. Baer; not shown: glutathione S-transferase (GST) tag

Legend:
[1] = molecular target: T1, ΔGBDΔDADG(YEKR)-mDia2 (UniProt Q9Z207 258-1030, limits assumed, 35S-methionine label (in the binding assay)); test: GST pull-down of 35S-labelled in vitro translated protein, autoradiography
T1 construct: a GFP-myc-tagged form was expressed in 3T3 cells for the Glu-MT assay; also called G(YEKR) mutation
T1 sequence (Q9Z207 other isoform, or with tags, fused parts or gaps mutant limits assumed): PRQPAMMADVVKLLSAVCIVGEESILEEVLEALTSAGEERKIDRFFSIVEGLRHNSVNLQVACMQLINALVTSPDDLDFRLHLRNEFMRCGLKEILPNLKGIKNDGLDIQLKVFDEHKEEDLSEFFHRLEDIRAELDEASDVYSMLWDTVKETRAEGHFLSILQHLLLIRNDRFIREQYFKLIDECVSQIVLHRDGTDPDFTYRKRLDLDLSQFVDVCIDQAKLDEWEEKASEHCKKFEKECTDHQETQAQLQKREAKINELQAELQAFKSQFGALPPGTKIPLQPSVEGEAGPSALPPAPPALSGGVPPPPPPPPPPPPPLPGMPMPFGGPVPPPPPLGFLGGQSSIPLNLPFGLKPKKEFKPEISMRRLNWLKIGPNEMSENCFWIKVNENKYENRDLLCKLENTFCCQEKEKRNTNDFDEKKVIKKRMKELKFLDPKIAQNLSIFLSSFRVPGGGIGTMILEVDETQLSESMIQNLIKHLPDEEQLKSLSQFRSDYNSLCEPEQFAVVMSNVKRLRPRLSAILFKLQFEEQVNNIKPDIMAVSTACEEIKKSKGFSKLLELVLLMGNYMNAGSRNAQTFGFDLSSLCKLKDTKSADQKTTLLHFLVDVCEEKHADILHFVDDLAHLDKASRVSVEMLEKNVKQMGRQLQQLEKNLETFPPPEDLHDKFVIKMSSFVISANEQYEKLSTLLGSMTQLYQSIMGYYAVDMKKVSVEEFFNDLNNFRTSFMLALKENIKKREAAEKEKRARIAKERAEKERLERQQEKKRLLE
Text: (§1) EB1 and APC interact with mDia. (a) Binding of in vitro transcribed and translated ³⁵S-labelled ΔGBD-mDia2 to the indicated GST-tagged constructs of EB1 and APC (bottom). Arrows indicate full-length GST-APC-C or GST-APC-basic proteins. Additional bands detected in the GST-APC-C and GST-APC-basic lanes are presumed to be breakdown products. (b) Binding of in vitro transcribed and translated ³⁵S-labelled mDia2 fragments to GST-EB1, GST and GST-APC-C. (c) Binding of Flag-mDia1 expressed in COS-7 cells to GST-EB1 and GST-APC-C in the presence of DMSO, nocodazole (NZ) and latrunculin A (Lat A). Bound proteins were detected by western blotting with antibodies to Flag-mDia1, tubulin and actin. […] Bound His-mDia was detected by western blotting with an anti-His antibody. (e) Endogenous mDia1 and EB1 co-immunoprecipitate with APC. Mouse brain extracts and COS-7 cell lysates were immunoprecipitated with APC antibodies and precipitates analyzed for APC, mDia1 and EB1 by western blotting with the indicated antibodies. IgG, non-immune immunoglobulin G used for control immunoprecipitation. (f) Schematic representation of the interactions between mDia, EB1 and APC. EB1 and APC bind to mDia through different domains than they use to bind to each other. Note that although EB1 and APC bind to the FH1-FH2 region of mDia, the individual binding sites within this domain have not been mapped. The molecules are not drawn to scale.
(§2) mDia2 transcripts labeled with ³⁵S-methionine (Amersham Biosciences) were generated with Quick-Coupled Transcription/Translation Systems (Promega). Equal molar amounts of GST, GST-EB1 or GST-APC on beads were incubated with labeled transcripts for 2 h at 4° C. in PBS containing 1% Triton X-100 and protease inhibitors. After washing, bound proteins were eluted with SDS sample buffer and analyzed by SDS-PAGE. Gels were incubated for 15-30 min in Amplify (Amersham Biosciences), dried and autoradiographed for 1-24 h. Flag-mDia1 (40) was transfected into COS-7 cells, lysates prepared and treated with 0.5 μM latrunculin A, 10 μM nocodazole or DMSO for 1 h on ice.

[2] = molecular target: T2, mDia2 FH2 domain fragment, in vitro transcribed and translated, 35S-labelled (UniProt Q9Z207 615-1013, limits assumed, 35S-methionine label); test: as above
T2 construct: domain: FH2
T2 sequence (Q9Z207 615-1013 limits assumed): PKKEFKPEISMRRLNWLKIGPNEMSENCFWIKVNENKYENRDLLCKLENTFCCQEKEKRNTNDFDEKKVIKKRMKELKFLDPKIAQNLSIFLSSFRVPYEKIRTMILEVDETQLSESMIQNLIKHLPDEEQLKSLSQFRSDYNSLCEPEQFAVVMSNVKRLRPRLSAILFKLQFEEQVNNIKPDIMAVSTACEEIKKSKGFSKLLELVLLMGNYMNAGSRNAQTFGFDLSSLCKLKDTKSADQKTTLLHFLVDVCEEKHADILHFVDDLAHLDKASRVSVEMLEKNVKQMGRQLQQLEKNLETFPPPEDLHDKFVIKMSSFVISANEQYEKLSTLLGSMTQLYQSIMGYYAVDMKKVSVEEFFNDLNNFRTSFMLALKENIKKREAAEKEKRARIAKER
Text: as §1, §2

[3] = molecular target: T3, GST-APC-C (amino acids 2167-2843) (UniProt P25054 2167-2843); test: as above
T3 construct: range 2167-2843; Gift from R. Baer; not shown: glutathione S-transferase (GST) tag
Text: as §1, §2

[4] = molecular target: B1; test: as above
Text: as §1, §2

[5] = molecular target: T4, His-521-1040-mDia2 (purified recombinant protein) (UniProt Q9Z207 521-1040); test: direct binding of purified recombinant proteins, GST pull-down, anti-His western blot
T4 construct: also called His-mDia; not shown: His tag of vector pQE-30 (detected with RGS-His antibody)
T4 sequence (Q9Z207 521-1040): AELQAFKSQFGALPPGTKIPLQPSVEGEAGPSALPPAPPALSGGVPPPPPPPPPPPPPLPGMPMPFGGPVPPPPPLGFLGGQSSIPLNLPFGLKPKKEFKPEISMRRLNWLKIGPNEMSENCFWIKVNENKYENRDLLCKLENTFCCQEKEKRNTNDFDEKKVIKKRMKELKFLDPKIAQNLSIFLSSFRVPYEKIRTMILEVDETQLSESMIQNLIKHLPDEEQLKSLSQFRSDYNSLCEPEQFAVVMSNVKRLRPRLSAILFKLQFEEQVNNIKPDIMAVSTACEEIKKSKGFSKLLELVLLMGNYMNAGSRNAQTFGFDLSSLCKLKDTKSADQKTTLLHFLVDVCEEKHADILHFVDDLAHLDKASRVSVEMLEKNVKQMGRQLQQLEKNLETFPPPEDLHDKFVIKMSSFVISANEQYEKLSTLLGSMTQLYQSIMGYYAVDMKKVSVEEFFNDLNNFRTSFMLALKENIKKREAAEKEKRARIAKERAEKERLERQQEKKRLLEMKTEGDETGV
Text: Bound proteins were detected by western blotting with antibodies to Flag-mDia1, tubulin and actin. […] Bound His-mDia was detected by western blotting with an anti-His antibody. (e) Endogenous mDia1 and EB1 co-immunoprecipitate with APC. Mouse brain extracts and COS-7 cell lysates were immunoprecipitated with APC antibodies and precipitates analyzed for APC, mDia1 and EB1 by western blotting with the indicated antibodies. IgG, non-immune immunoglobulin G used for control immunoprecipitation. (f) Schematic representation of the interactions between mDia, EB1 and APC. EB1 and APC bind to mDia through different domains than they use to bind to each other. Note that although EB1 and APC bind to the FH1-FH2 region of mDia, the individual binding sites within this domain have not been mapped. The molecules are not drawn to scale.
mDia2 transcripts labeled with ³⁵S-methionine (Amersham Biosciences) were generated with Quick-Coupled Transcription/Translation Systems (Promega). […] After washing, bound proteins were eluted with SDS sample buffer and analyzed by SDS-PAGE. […] The treated lysates were incubated with GST-tagged constructs as described above and analyzed by western blotting with mouse anti-Flag-M2 antibody (1:10,000; Sigma), rabbit anti-tubulin10 (W2; 1:50,000) and mouse anti-actin (C4D6; 1:50,000). […] Bound proteins were analyzed by western blotting with mouse RGS-His antibody (1:10,000).

[6] = molecular target: B2; test: GST pull-down from COS-7 lysates, anti-GFP western blot
Text: Residues of EB1 that were mutated to the indicated residues (below) are shaded in grey. (b) Diagram of GST-APC constructs used in this study. APC has a microtubule-binding site (labeled ‘Basic’) and a separate EB1-binding site in its C-terminus. (c) Pull-down analysis of wild type (WT) EB1-C-GFP and mutant EB1-C-GFPs by GST-APC-C1 and GST-p150^Glued (1-330). Western blots were probed with anti-GFP antibody. (d) The ability of EB1-C-GFP wild type (WT) and mutants to inhibit LPA-stimulated Glu-MTs in serum-starved 3T3 cells. All EB1-C-GFP constructs were expressed at equivalent levels on the basis of GFP fluorescence. Error bars represent the standard error from at least three independent experiments. (e) EB1-GFP and EB1-C-GFP interact with endogenous APC in cells. COS-7 cells were transiently transfected and immunoprecipitated as indicated. Western blots of the immunoprecipitates were probed with EB1 antibody. […] Cells expressing APC (untagged) were detected with antibody to APC. […]
For binding of wild-type and mutant EB1-C-GFP to APC or p150^Glued, COS-7 cells were transfected with EB1-C-GFP constructs and lysed in PBS containing 1% Triton X-100 and protease inhibitors. […] Bound proteins were analyzed by western blotting with rabbit anti-GFP (1:10,000; BD Transduction Laboratory). […] Bound proteins were eluted with SDS sample buffer and analyzed by western blotting for EB1.

Binder | binding result [5] | binding result [6] | other results
B1 |  |  | binding result [1]: no binding; binding result [2]: no binding
mDia2 FH1 domain fragment, in vitro transcribed and translated, 35S-labelled (other, UniProt Q9Z207 540-610, looked up, 35S-methionine label, domain: FH1) PLQPSVEGEAGPSALPPAPPALSGGVPPPPPPPPPPPPPLPGMPMPFGGPVPPPPPLGFLGGQSSIPLNLP |  |  | binding result [3]: no binding; binding result [4]: no binding
GST-EB1-C (other, mouse, UniProt Q61166 165-268, looked up, range 165-268; also called glutathione S-transferase fused to EB1-C; not shown: glutathione S-transferase (GST) tag, N-terminal, vector pGEX-2T) ATQRTTAAPKAGPGMVRKNPGVGNGDDEAAELMQQVKVLKLTVEDLEKERDFYFGKLRNIELICQENEGENDPVLQRIVDILYATDEGFVIPDEGGPQEEQEEY | no binding (tested: 0.3 µM) |  | 
B2 | no binding (tested: 0.3 µM) |  | 
EB1-C-EEKR-GFP (other, mouse, UniProt Q61166 165-268, looked up, range 165-268; not shown: GFP tag (vector pGFP-NKB)) ATQRTTAAPKAGPGMVRKNPGVGNGDDEAAELMQQVKVLKLTVEDLAKARDFYFGALANIELICQENEGENDPVLQRIVDILYATDEGFVIPDEGGPQEEQEEY |  | no binding | 
EB1-C-KR-GFP (other, mouse, UniProt Q61166 165-268, looked up, range 165-268; not shown: GFP tag (vector pGFP-NKB)) ATQRTTAAPKAGPGMVRKNPGVGNGDDEAAELMQQVKVLKLTVEDLEKERDFYFGALANIELICQENEGENDPVLQRIVDILYATDEGFVIPDEGGPQEEQEEY |  | no binding | 

Reference: US20070148663A1 (TRUSTEES OF COLUMBIA UNIVERSITY IN THE CITY OF NEW YORK, published 2007)
